The results in this text go back to PMC4454452 (The Biochemical journal, 2014).

The Kd is the free concentration of one partner at which half of the binding sites on the other are occupied at equilibrium, for simple one-to-one binding. Read a low Kd as higher affinity.

The experiment concerns the target CHD4 PHD2 finger (15N-labelled, GST tag cleaved) (uniformly 15N-labelled). Kind of experiment: NMR titration.

As to ARTKQTARKSTG [unmodified histone H3 peptide (amino acids 1-12 of histone H3), NMR experiments], binding was characterised by a dissociation constant (Kd) of 18 µM.
